From article PMC4694764 (Molecular Biology of the Cell, 2016) come the findings set out here.

This assay has as its target GST-MICAL-L2-ACT (aa 261-1009) (mouse, UniProt Q3TN34 261-1009). As to the kind of experiment: pull-down.

GST-MICAL-L2-ACT (aa 261-1009), sequence (Q3TN34 261-1009): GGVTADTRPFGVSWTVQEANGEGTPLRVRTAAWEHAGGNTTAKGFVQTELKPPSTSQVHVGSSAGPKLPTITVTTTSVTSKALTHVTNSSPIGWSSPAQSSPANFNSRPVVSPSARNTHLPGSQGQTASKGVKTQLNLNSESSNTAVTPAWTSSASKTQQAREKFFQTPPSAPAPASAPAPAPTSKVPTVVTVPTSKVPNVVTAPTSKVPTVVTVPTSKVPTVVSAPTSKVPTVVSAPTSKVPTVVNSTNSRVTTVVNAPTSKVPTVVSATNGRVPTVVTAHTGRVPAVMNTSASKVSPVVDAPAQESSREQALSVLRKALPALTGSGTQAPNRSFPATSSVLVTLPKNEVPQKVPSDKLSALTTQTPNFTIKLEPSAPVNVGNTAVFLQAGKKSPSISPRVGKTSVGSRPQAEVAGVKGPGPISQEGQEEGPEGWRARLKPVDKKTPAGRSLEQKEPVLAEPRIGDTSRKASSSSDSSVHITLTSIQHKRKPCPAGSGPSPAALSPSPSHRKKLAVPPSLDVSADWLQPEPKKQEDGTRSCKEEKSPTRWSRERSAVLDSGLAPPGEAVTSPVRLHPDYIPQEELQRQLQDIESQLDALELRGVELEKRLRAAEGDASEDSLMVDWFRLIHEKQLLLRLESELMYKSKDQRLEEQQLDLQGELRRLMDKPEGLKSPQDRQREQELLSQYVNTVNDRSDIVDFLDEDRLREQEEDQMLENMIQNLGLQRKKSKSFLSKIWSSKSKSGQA

B1: GFP-Rab13 (expressed in L6-GLUT4myc muscle cells) (natural protein, UniProt P51153 1-203, looked up)
chain: MAKAYDHLFKLLLIGDSGVGKTCLIIRFAEDNFNNTYISTIGIDFKIRTVDIEGKKIKLQVWDTAGQERFKTITTAYYRGAMGIILVYDITDEKSFENIQNWMKSIKENASAGVERLLLGNKCDMEAKRKVQKEQADKLAREHGIRFFETSAKSSMNVDEAFSSLARDILLKSGGRRSGNGNKPPSTDLKTCDKKNTNKCSLG
On to B1, for which the “fold of pull-down, lysates of insulin-stimulated against basal cells” value is ~2 fold.
